# Laboratory results reported in patent publication US20210380703A1.
# Where a chain is given by its changes, count along the chain named.
# B1: 366_A03 (antibody, V domains shown)
# VH: EVQLLESGGGLVQPGGSLRLSCAASGFTFDSYSMNWVRQAPGKGLEWVAGINYNSGYKGYADSVKGRFTISRDNSKNTLYLQMNSLRAEDTAVYYCARSATWHDTHLDYWGQGTLVTVSS
# VL: DIQMTQSPSSLSASVGDRVTITCRASQSISSYLNWYQQKPGKAPKLLIYAATSLASGVPSRFSGSGSGTDFTLTISSLQPEDFATYYCQQSYSNPLTFGGGTKVEIK
# B2: 365_A10 (antibody, V domains shown)
# VH: B1 VH with D30S, S33G, N35H, K58T, G59S
# VL: B1 VL with S30L, S31T, L47V, A51V, S93D, N94S
# B3: 366_D02 (antibody, V domains shown)
# VH: B1 VH with D30S, G50S, S55G, K58T, G59S
# VL: B1 VL with S30L, L33V, A51T, S93D, N94L
# B4: 367_G07 (antibody, V domains shown)
# VH: B1 VH with G50N, S55G, K58T
# VL: B1 VL with S30L, S31T, L33V, L54R, S93D
# B5: 368_E11 (antibody, V domains shown)
# VH: B1 VH with S33G, N35H, G50N, S55G, K58T, G59S
# VL: B1 VL with S30I, L33V, L54R, A55H, S93E, N94L
# B6: 368_F12 (antibody, V domains shown)
# VH: B1 VH with S31D, G50S, G59S
# VL: B1 VL with S30V, S31T, L47V, S93D, N94L
# B7: 374_C04 (antibody, V domains shown)
# VH: B1 VH with D30S, G59S
# VL: B1 VL with S30L, S31T, T52S, A55Q, S93E, N94L
# B8: 367_F02 (antibody, V domains shown)
# VH: B1 VH with G50N, S55G, K58T, G59S
# VL: B1 VL with S30I, L33V, L54R, A55H, S93E, N94S
# B9: 369_A10 (antibody, V domains shown)
# VH: B1 VH with K58T
# VL: B1 VL with S30L, L54R, S93E, N94L
# B10: 375_G07 (antibody, V domains shown)
# VH: B1 VH with K58T, G59S
# VL: B1 VL with S30L, L47V, S93D, N94L
# B11: 372_D04 (antibody, V domains shown)
# VH: B1 VH with D30S, G50N, K58T
# VL: B1 VL with S30L, S31T, A55H, S93D, N94L
# B12: 371_F05 (antibody, V domains shown)
# VH: B1 VH with D30S, G59S
# VL: B1 VL with S30L, L54R, A55H, S93E
# B13: 368_H12 (antibody, V domains shown)
# VH: B1 VH with G50S
# VL: B1 VL with S30V, S31T, L54R, S93E, N94S
# B14: 374_C05 (antibody, V domains shown)
# VH: B1 VH with G59S
# VL: B1 VL with S30I, S31R, L47V, L54R, S93D
# B15: 365_A07 (antibody, V domains shown)
# VH: B1 VH with D30S, S33G
# VL: B1 VL with S30V, L54R, S93N, N94L
# B16: 375_C12 (antibody, V domains shown)
# VH: B1 VH with D30S, G50N, S55G, K58T
# VL: B1 VL with S30L, S31T, L54R, S93D, N94L
# B17: 365_B09 (antibody, V domains shown)
# VH: B1 VH with G59S
# VL: B1 VL with S30L, S31R, A55H, S93D
# B18: 373_C09 (antibody, V domains shown)
# VH: B1 VH with G59S
# VL: B1 VL with S30L, S31T, L47V, L54R, S93E, N94L
# B19: 375_B04 (antibody, V domains shown)
# VH: B1 VH with G50N, S55G, K58T
# VL: B1 VL with S30L, S31T, L54R, S93D
# B20: 374_C11 (antibody, V domains shown)
# VH: B1 VH with D30S
# VL: B1 VL with S30L, S31T, L54R, S93E, N94S
# B21: 368_G09 (antibody, V domains shown)
# VH: B1 VH with S33G, N35H, G50N, S55G, K58T, G59S
# VL: B1 VL with S30V, L47V, L54R, S93D, N94T
# B22: 374_D02 (antibody, V domains shown)
# VH: B1 VH with K58T, G59S
# VL: B1 VL with S31T, L33V, A51V, S93D, N94S
# B23: 376_C11 (antibody, V domains shown)
# VH: B1 VH with G59S
# VL: B1 VL with S30L, S31T, L47V, L54R, S93D
# B24: 371_G03 (antibody, V domains shown)
# VH: B1 VH with D30S, S33G, G50N, S55G
# VL: B1 VL with S30V, S31T, L33V, L47V, S93N, N94L
# B25: 370_A06 (antibody, V domains shown)
# VH: B1 VH with D30S, G50S, G59S
# VL: B1 VL with S30V, S31T, L47V, S93D, N94L
# B26: 370_E07 (antibody, V domains shown)
# VH: B1 VH with G50N, S55G, K58T
# VL: B1 VL with S30L, S31T, L54R, S93D
# B27: 373_B11 (antibody, V domains shown)
# VH: B1 VH with D30S, G50N
# VL: B1 VL with S30L, L54R, S93D
# B28: 373_F03 (antibody, V domains shown)
# VH: B1 VH with G50N, K58T
# VL: B1 VL with S30L, S31T, L33V, L54R, A55H, S93D, N94S
# B29: 373_E06 (antibody, V domains shown)
# VH: B1 VH with G59S
# VL: B1 VL with S30L, S31R, A55H, S93D
# B30: 373_B03 (antibody, V domains shown)
# VH: B1 VH with D30S, G59S
# VL: B1 VL with S30L, S31T, L47V, S93D
# B31: 368_H01 (antibody, V domains shown)
# VH: B1 VH with D30S, G59S
# VL: B1 VL with S30L, A51T, S93D
# B32: 365_F08 (antibody, V domains shown)
# VH: B1 VH with S31D, S33G, G50N, S55G, K58T, G59S
# VL: B1 VL with S30L, L33V, L54R, A55H, N94L
# B33: 373_B08 (antibody, V domains shown)
# VH: B1 VH with G50N
# VL: B1 VL with S30L, S31T, L47V, S93E
# B34: 376_B06 (antibody, V domains shown)
# VH: B1 VH with D30S
# VL: B1 VL with S30L, S31T, L54R, S93D, N94L
# Target: human Fc (human)
# Assay: ELISA; negative control
row,optical density [OD],Binder
1,0.303,B1
2,0.293,B2
3,0.349,B3
4,0.295,B4
5,0.341,B5
6,0.349,B6
7,0.201,B7
8,0.315,B8
9,0.348,B9
10,0.178,B10
11,0.419,B11
12,0.297,B12
13,0.381,B13
14,0.175,B14
15,0.284,B15
16,0.197,B16
17,0.272,B17

row,optical density [OD],Binder
1,0.17,B18
2,0.19,B19
3,0.471,B20
4,0.281,B21
5,0.204,B22
6,0.23,B23
7,0.359,B24
8,0.331,B25
9,0.379,B26
10,0.178,B27
11,0.179,B28
12,0.187,B29
13,0.18,B30
14,0.374,B31
15,0.437,B32
16,0.17,B33
17,0.222,B34
